Where two headings read alike, the source gives them in different places. *1 amine or outer side, *2 acyl side, *3 side chain or, on linkers, in order; H or OH if unused. Primed or numbered codes have the meaning given here. Where no end group is shown, it is not given here. [ ]: non-standard residue; d: D form. Pro((4-tert-butyl-phenyl)-methoxy) = Pro(4-R13), R13 = (4-tert-butyl-phenyl)-methoxy; Hyp(4-Bn) = 4(R)-benzyloxyproline, O=C([C@@H]1C[C@@H](OCc2ccccc2)CN1[*:1])[*:2]; Pro(1-NpCH2O)″ = Pro(4-R13), R13 = naphthalen-1-ylmethoxy; Pro(2-NpCH2O)″ = Pro(4-R13), R13 = naphthalen-2-ylmethoxy; Glutaryl = O=C(CCCC(=O)[*:2])[*:1]; Pro(4-OBn) = Pro(4-R13), R13 = OBn; Pro(O-Bn) = Pro(4-R13), R13 = O-Bn; NMeI = CC[C@H](C)[C@H](NC)C(=O)O; Pro(Bn) = Pro(4-R13), R13 = Bn; AllylGly = C=CC[C@H](N)C(=O)O; Chg = N[C@H](C(=O)O)C1CCCCC1; Suc = O=C(CCC(=O)[*:2])[*:1]; Tle = CC(C)(C)[C@H](N)C(=O)O; code B = not defined here; Ac5c = NC1(C(=O)O)CCCC1; Acca = not defined here; Nva = CCC[C@H](N)C(=O)O; Abu = CC[C@H](N)C(=O)O; Acc = not defined here; Ac3c = NC1(C(=O)O)CC1
B1: Compound 304 (Table 3): Ac-Chg-Val-W-Acc, W drawn (peptide)
peptide: Ac-[Chg]VX[Acc]
modifications: not fully specified (residue 3); printed as Ac-Chg-Val-W-Acc; also: further groups not given here
B2: Compound 223 (Table 2): B-Ile-Val-Pro(1-NpCH2O)-Nva, B drawn (peptide)
peptide: {code B}-IV[Pro(4-(1-NpCH2O))][Nva]
modifications: reading uncertain; also: further groups not given here, printed as B-Ile-Val-Pro(1-NpCH2O)-Nva
B3: Compound 224 (Table 2): B-Ile-Val-Pro(1-NpCH2O)-Nva, B drawn (peptide)
peptide: {code B}-IV[Pro(4-(1-NpCH2O))][Nva]
modifications: reading uncertain; also: further groups not given here, printed as B-Ile-Val-Pro(1-NpCH2O)-Nva

Key:
Assay in all cases: cell-based or functional assay
[1] = target: T1, recombinant NS3 protease with the NS4A peptide cofactor … (molar ratio enzyme:cofactor 1:100) (hepatitis C virus genotype 1b)
[2] = target: T1, recombinant NS3 protease with the NS4A …; remark: listed apart in the source
[3] = target: T1, recombinant NS3 protease with the NS4A …; remark: listed apart in the source
[4] = target: T1, recombinant NS3 protease with the NS4A …; remark: listed apart in the source

| Binder | IC50 [1] [µM] | IC50 [2] [µM] | also measured |
| --- | --- | --- | --- |
| Ac-DDIVP[Ac3c] [Compound 126 (Table 1): Ac-Asp-Asp-Ile-Val-Pro-Acca] | 45 |  |  |
| Ac-DDIV[Pro((4-tert-butyl-phenyl)-methoxy)][Nva] [Compound 209 (Table 2): Ac-Asp-Asp-Ile-Val-Pro((4-tert-butyl-phenyl)-methoxy)-Nva] |  | 2.6 |  |
| {HOOC‑CH2CH2‑N(Me)C(O)‑CH2‑CH(cyclohexyl)‑C(O)}-Val-[Pro(4-(1-NpCH2O))]-[Ac3c] [Compound 405 (Table 4): B HOOC-CH2CH2-N(Me)C(O)-; R4 cyclohexyl; P3 Val; R13 1-NpCH2O; P1 Acca] |  |  | IC50 [3]: 1.6 µM |
| Ac-IVP[Nva] (not fully specified (residue 3); printed as Ac-Ile-Val-Pro(1-NpCH2O)-Nva) [Compound 225 (Table 2): Ac-Ile-Val-Pro(1-NpCH2O)-Nva] |  | 45 |  |
| Ac-DD[Tle]VPC [Compound 111 (Table 1): Ac-Asp-Asp-Tbg-Val-Pro-Cys] | 79 |  |  |
| {(HOOC-(CH2)2)2‑NH‑CH2‑CH2‑CH(cyclohexyl)‑C(O)}-Val-[Pro(4-(1-NpCH2O))]-[Ac3c] [Compound 411 (Table 4): B [HOOC-(CH2)2]2-NH-CH2-; R4 cyclohexyl; P3 Val; R13 1-NpCH2O; P1 Acca] |  |  | IC50 [3]: 0.36 µM |
| Ac-DDIV[Pro(4-(Ph(CH2)3))][Nva] [Compound 217 (Table 2): Ac-Asp-Asp-Ile-Val-Pro(Ph(CH2)3)-Nva] |  | 3 |  |
| B1 |  |  | IC50 [4]: 1.1 µM |
| Ac-DDIV[Pro(Bn)][Nva] [Compound 216 (Table 2): Ac-Asp-Asp-Ile-Val-Pro(Bn)-Nva] |  | 60 |  |
| Ac-EDIVPC [Compound 102 (Table 1): Ac-Glu-Asp-Ile-Val-Pro-Cys] | 59 |  |  |
| {MeOOC‑CH2‑CH2‑N(Me)c(O)‑CH2‑CH(cyclohexyl)‑C(O)}-Val-[Pro(4-(1-NpCH2O))]-[Ac3c] [Compound 406 (Table 4): B MeOOC-CH2-CH2-N(Me)c(O)-; R4 cyclohexyl; P3 Val; R13 1-NpCH2O; P1 Acca] |  |  | IC50 [3]: 25 µM |
| Suc-IV[Pro(4-(1-NpCH2O))][Nva] [Compound 221 (Table 2): DAD-Ile-Val-Pro(1-NpCH2O)-Nva] |  | 22 |  |
| Ac-DIV[Pro(4-(1-NpCH2O))][Nva] [Compound 219 (Table 2): Ac-Asp-Ile-Val-Pro(1-NpCH2O)-Nva] |  | 2.3 |  |
| Ac-DE[Chg]V[Glu(OBn)][Acca] (reading uncertain; also: printed as Ac-Asp-Glu-Chg-Val-Glu(OBn)-Acca) [Compound 133 (Table 1): Ac-Asp-Glu-Chg-Val-Glu(OBn)-Acca] | 39 |  |  |
| Ac-D[Tle]IVPC [Compound 108 (Table 1): Ac-Asp-Tbg-Ile-Val-Pro-Cys] | 31 |  |  |
| Glutaryl-IVP[Ac3c] (not fully specified (residue 3); printed as DAE-Ile-Val-Pro(1-NpCH2O)-Acca) [Compound 237 (Table 2): DAE-Ile-Val-Pro(1-NpCH2O)-Acca] |  | 5.5 |  |
| Suc-[NMeI]V[Pro(4-(1-NpCH2O))][Nva] [Compound 220 (Table 2): DAD-N(Me)Ile-Val-Pro(1-NpCH2O)-Nva] |  | 31 |  |
| {(HOOC-CH2)2‑NC(O)‑CH2‑CH(cyclohexyl)‑C(O)}-Val-[Pro(4-(1-NpCH2O))]-[Ac3c] [Compound 412 (Table 4): B [HOOC-CH2]2-NC(O)-; R4 cyclohexyl; P3 Val; R13 1-NpCH2O; P1 Acca] |  |  | IC50 [3]: 0.8 µM |
| Ac-DDIVP[AllylGly] [Compound 124 (Table 1): Ac-Asp-Asp-Ile-Val-Pro-AlGly] | 210 |  |  |
| Ac-DDIVPC [Compound 101 (Table 1): Ac-Asp-Asp-Ile-Val-Pro-Cys] | 46 |  |  |
| Ac-D[dE]IV[Pro(4-OBn)]C [Compound 260 (Table 2): Ac-Asp-D-Glu-Ile-Val-Pro(O-Bn)-Cys] |  | 0.18 |  |
| Ac-DDIV[Hyp(4-Bn)]C [Compound 121 (Table 1): Ac-Asp-Asp-Ile-Val-Hyp(4-Bn)-Cys] | 1.7 |  |  |
| Ac-[Chg]VPC (not fully specified (residue 3); printed as Ac-Chg-Val-Pro(O-Bn)-Cys) [Compound 261 (Table 2): Ac-Chg-Val-Pro(O-Bn)-Cys] |  | 28 |  |

| Binder | IC50 [1] [µM] | IC50 [2] [µM] | also measured |
| --- | --- | --- | --- |
| Ac-DE[Chg]EEC [Compound 131 (Table 1): Ac-Asp-Glu-Chg-Glu-Glu-Cys] | 24 |  |  |
| Ac-DDIV[Pro(4-(Ph(CH2)3))][Nva] [Compound 230 (Table 2): Ac-Asp-Asp-Ile-Val-Pro(Ph(CH2)3)-Nva] |  | 3.3 |  |
| Ac-IVP[Ac3c] (not fully specified (residue 3); printed as Ac-Ile-Val-Pro(1-NpCH2O)-Acca) [Compound 262 (Table 2): Ac-Ile-Val-Pro(1-NpCH2O)-Acca] |  | 40 |  |
| Suc-DIVPC [Compound 103 (Table 1): DAD-Asp-Ile-Val-Pro-Cys] | 26 |  |  |
| Ac-DDIVP[Ac5c] [Compound 125 (Table 1): Ac-Asp-Asp-Ile-Val-Pro-Acpe] | 210 |  |  |
| Ac-DDIVIC [Compound 119 (Table 1): Ac-Asp-Asp-Ile-Val-Ile-Cys] | 90 |  |  |
| {HOOC‑CH2CH2‑N(Me)2‑C(O)‑CH2‑CH(cyclohexyl)‑C(O)}-Val-[Pro(4-(1-NpCH2O))]-[Ac3c] [Compound 407 (Table 4): B HOOC-CH2CH2-N(Me)2-C(O)-; R4 cyclohexyl; P3 Val; R13 1-NpCH2O; P1 Acca] |  |  | IC50 [3]: 1.5 µM |
| {HOOC‑CH2‑N(Me)‑C(O)‑CH2‑CH(cyclohexyl)‑C(O)}-Val-[Pro(4-(1-NpCH2O))]-[Ac3c] [Compound 409 (Table 4): B HOOC-CH2-N(Me)-C(O)-; R4 cyclohexyl; P3 Val; R13 1-NpCH2O; P1 Acca] |  |  | IC50 [3]: 24 µM |
| Ac-DDIV[Pro(O-Bn)][Nva] [Compound 201 (Table 2): Ac-Asp-Asp-Ile-Val-Pro(O-Bn)-Nva] |  | 7.2 |  |
| Ac-DDIVP[Nva] [Compound 273 (Table 2): Ac-Asp-Asp-Ile-Val-Pro(R13 = H)-Nva] |  | 17.5 |  |
| Suc-DIVP[Nva] [Compound 130 (Table 1): DAD-Asp-Ile-Val-Pro-Nva] | 123 |  |  |
| {EtOOC‑CH‑N(Me)2‑C(O)‑CH2‑CH(cyclohexyl)‑C(O)}-Val-[Pro(4-(1-NpCH2O))]-[Ac3c] [Compound 410 (Table 4): B EtOOC-CH-N(Me)2-C(O)-; R4 cyclohexyl; P3 Val; R13 1-NpCH2O; P1 Acca] |  |  | IC50 [3]: 32 µM |
| {MeOOC‑(CH2)2‑N(Me)2‑C(O)‑CH2‑CH(cyclohexyl)‑C(O)}-Val-[Pro(4-(1-NpCH2O))]-[Ac3c] [Compound 408 (Table 4): B MeOOC-(CH2)2-N(Me)2-C(O)-; R4 cyclohexyl; P3 Val; R13 1-NpCH2O; P1 Acca] |  |  | IC50 [3]: 11 µM |
| {(HOOC-(CH2)2)2‑NC(O)‑CH2‑CH(cyclohexyl)‑C(O)}-Val-[Pro(4-(1-NpCH2O))]-[Ac3c] [Compound 413 (Table 4): B [HOOC-(CH2)2]2-NC(O)-; R4 cyclohexyl; P3 Val; R13 1-NpCH2O; P1 Acca] |  |  | IC50 [3]: 0.12 µM |
| Ac-D[dD]IVPC [Compound 104 (Table 1): Ac-Asp-D-Asp-Ile-Val-Pro-Cys] | 8.5 |  |  |
| Ac-DDIV[Pro(1-NpCH2O)″][Nva] [Compound 207 (Table 2): Ac-Asp-Asp-Ile-Val-Pro(1-NpCH2O)-Nva] |  | 0.39 |  |
| Glutaryl-IV[Pro(4-(1-NpCH2O))][Nva] [Compound 222 (Table 2): DAE-Ile-Val-Pro(1-NpCH2O)-Nva] |  | 20 |  |
| B2 |  | 51 |  |
| B3 |  | 56 |  |
| Ac-DDIVP[Abu] [Compound 122 (Table 1): Ac-Asp-Asp-Ile-Val-Pro-Abu] | 315 |  |  |
| Ac-D[dE]IVPC [Compound 105 (Table 1): Ac-Asp-D-Glu-Ile-Val-Pro-Cys] | 1.5 |  |  |
| Ac-D[dV]IVPC [Compound 274 (Table 2): Ac-Asp-D-Val-Ile-Val-Pro(R13 = H)-Cys] |  | 7.6 |  |
| Ac-DDIV[Pro(2-NpCH2O)″][Nva] [Compound 208 (Table 2): Ac-Asp-Asp-Ile-Val-Pro(2-NpCH2O)-Nva] |  | 0.71 |  |
